Consider two proteins from patent US20220017960.

Numbering of substitutions follows the chain as printed. In names and notes the source's numbering stands.

This data set deals with FLAG-tagged TRIM25, Q14258.
FLAG-tagged TRIM25, Q14258, sequence (Q14258 whole entry): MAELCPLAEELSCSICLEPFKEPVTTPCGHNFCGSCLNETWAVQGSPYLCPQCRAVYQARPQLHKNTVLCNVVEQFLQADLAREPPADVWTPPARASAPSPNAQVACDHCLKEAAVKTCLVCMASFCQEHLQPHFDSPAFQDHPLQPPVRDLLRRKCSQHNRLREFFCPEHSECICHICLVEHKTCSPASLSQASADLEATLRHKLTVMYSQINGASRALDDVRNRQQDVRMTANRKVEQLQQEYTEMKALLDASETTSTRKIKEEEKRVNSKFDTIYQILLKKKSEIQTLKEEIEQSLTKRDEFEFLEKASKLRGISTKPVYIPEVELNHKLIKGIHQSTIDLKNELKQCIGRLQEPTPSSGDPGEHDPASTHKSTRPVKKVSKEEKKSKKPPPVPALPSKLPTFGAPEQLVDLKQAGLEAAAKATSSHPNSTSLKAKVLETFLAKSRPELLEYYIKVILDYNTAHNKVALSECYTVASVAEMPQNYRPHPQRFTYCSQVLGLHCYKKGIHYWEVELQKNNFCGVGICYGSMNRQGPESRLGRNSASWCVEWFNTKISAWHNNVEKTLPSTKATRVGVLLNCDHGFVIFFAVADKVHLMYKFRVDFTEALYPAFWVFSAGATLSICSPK

B1: Xpress (Xpr)-tagged human USP15 wild type (WT) (protein)
chain: AEGGAADLDTQRSDIATLLKTSLRKGDTWYLVDSRWFKQWKKYVGFDSWDKYQMGDQNVYPGPIDNSGLLKDGDAQSLKEHLIDELDYILLPTEGWNKLVSWYTLMEGQEPIARKVVEQGMFVKHCKVEVYLTELKLCENGNMNNVVTRRFSKADTIDTIEKEIRKIFSIPDEKETRLWNKYMSNTFEPLNKPDSTIQDAGLYQGQVLVIEQKNEDGTWPRGPSTPNVKNSNYCLPSYTAYKNYDYSEPGRNNEQPGLCGLSNLGNTCFMNSAIQCLSNTPPLTEYFLNDKYQEELNFDNPLGMRGEIAKSYAELIKQMWSGKFSYVTPRAFKTQVGRFAPQFSGYQQQDCQELLAFLLDGLHEDLNRIRKKPYIQLKDADGRPDKVVAEEAWENHLKRNDSIIVDIFHGLFKSTLVCPECAKISVTFDPFCYLTLPLPMKKERTLEVYLVRMDPLTKPMQYKVVVPKIGNILDLCTALSALSGIPADKMIVTDIYNHRFHRIFAMDENLSSIMERDDIYVFEININRTEDTEHVIIPVCLREKFRHSSYTHHTGSSLFGQPFLMAVPRNNTEDKLYNLLLLRMCRYVKISTETEETEGSLHCCKDQNINGNGPNGIHEEGSPSEMETDEPDDESSQDQELPSENENSQSEDSVGGDNDSENGLCTEDTCKGQLTGHKKRLFTFQFNNLGNTDINYIKDDTRHIRFDDRQLRLDERSFLALDWDPDLKKRYFDENAAEDFEKHESVEYKPPKKPFVKLKDCIELFTTKEKLGAEDPWYCPNCKEHQQATKKLDLWSLPPVLVVHLKRFSYSRYMRDKLDTLVDFPINDLDMSEFLINPNAGPCRYNLIAVSNHYGGMGGGHYTAFAKNKDDGKWYYFDDSSVSTASEDQIVSKAAYVLFYQRQDTFSGTGFFPLDRETKGASAATGIPLESDEDSNDNDNDIENENCMHTN
As for B1, the “deubiquitination of TRIM25 (anti-FLAG immunoprecipitation, immunoblot with anti-ubiquitin and anti-TRIM25 antibodies)” value is on record as “we observed that TRIM25 is a target for deubiquitination by USP15”.

B2: Xpress (Xpr)-tagged human USP15 mutant (L720R) (protein)
chain: B1 chain with L719R
In the case of B2, the “deubiquitinase activity towards TRIM25 (anti-FLAG immunoprecipitation, immunoblot with anti-ubiquitin and anti-TRIM25 antibodies)” value is “we observed a reduced deubiquitinase activity in the L749R variant (the corresponding human L720R isoform was tested), when compared to WT”.
